Source: patent US20190375786A1, “STABLE PEPTIDES AND METHODS OF USE THEREOF” (Fred Hutchinson Cancer Research Center, priority 2016, published 2019)
“Also recorded” adds a separate entry of the source. Positions of bridges follow the written chain, without caps; N, C: chain ends. Residues, ends and D or L forms follow the SMILES beside them.

Legend:
[1] = target: trypsin (Sus scrofa, UniProt P00761); test: Trypsin digestion resistance of soluble peptide, RP-HPLC; assay type: in vitro ADME, porcine; design: purchased Sigma Aldrich 6567; conditions: 500 U/ml trypsin (50 U per reaction), 30 minutes at 37.5° C.; HPLC
Protocol: (§1) Peptides were first suspended in 500 μl of ddH2O to a stock concentration of 2 mg/ml. Reactions were prepared by adding 12.5 μg of peptide from the stock solution to a 10 mM solution of DTT in PBS and allowed to incubate at room temperature for 30 minutes. Other reactions were prepared with 12.5 μg peptide and 500 U/ml trypsin in 25 mM Tris/75 mM NaCl buffer (pH 7.0) and incubated for 30 minutes at 37.5° C. These reactions were then quenched with 5 μg of soybean trypsin inhibitor (I) and, in some cases, 10 mM dithiothreitol (DTT). Reversed phase HPLC (RP-HPLC) was run on samples using an Agilent 1260 HPLC equipped with a C-18 Poroshell 120B column. Sample were analyzed by a gradient method with a mobile phase of Solvent A (water with 0.1% TFA) and Solvent B (acetonitrile with 0.1% TFA). Solvent B was ramped up from 5%-45% of the mobile phase over a period of 10 minutes. For testing pepsin digestion resistance, reactions were prepared with 12.5 μg peptide with or without 500 U/ml pepsin in simulated gastric fluid (SGF; pH 1.05; […] sodium chloride in 0.7% (v/v) hydrochloric acid) and were incubated for 30 minutes at 37.5° C. For testing temperature resistance, peptides were incubated at 70° C., 75° C., or 100° C. for one hour in 0.5 mM PBS, pelleted, and then the supernatant was analyzed by HPLC.
(§2) This example illustrates peptide stability in biological conditions including in the presence of reducing agents, proteases, oxidative conditions, acidic conditions, and simulated gastric fluids. […] Various peptides were suspended in 500 μl of ddH2O at a stock concentration of 2 mg/ml. This was then diluted in accord with the reaction conditions to prevent adverse buffering effects. Reactions were prepared with 12.5 μg peptide dissolved in solution and, in some samples, additionally suspended in a 10 mM solution of DTT, simulated gastric fluid (pH 1.05; […] sodium chloride in 0.7% (v/v) hydrochloric acid), 500 U pepsin (5000 U/ml pepsin), 50 U trypsin (500 U/ml trypsin) with 1 mg/ml inhibitor in PBS, or a combination of any of these conditions. All protease reactions were incubated for 30 min at room temperature and then quenched. Pepsin reactions were quenched by adding Tris base to a final concentration of 0.075 M. Trypsin reactions were quenched by adding excess soybean trypsin inhibitor. RP-HPLC was then run on samples using an Agilent 1260 HPLC equipped with a C-18 Poroshell 120B column. Sample were analyzed by a gradient method with a mobile phase of Solvent A (water with 0.1% TFA) and Solvent B (acetonitrile with 0.1% TFA). Solvent B was ramped up from 5%-45% of the mobile phase over a period of 10 minutes.
Soluble peptides were exposed to 500 U/mL porcine trypsin and analyzed by HPLC. Protease resistance was also assessed by using SDPR-displaying peptides. The SDPR vector is similar to the a surface display GFP FasL(SDGF) vector, but contains a C-terminal 6×His tag (SEQ ID NO: 180) and all basic or aromatic amino acid residues on the stalk removed. Protease resistance is then tested by incubation of cells displaying peptides with trypsin or chymotrypsin, followed by incubation in 10 mM DTT, and staining with an anti-6×His fluorophore-labeled antibody (“6×His” disclosed as SEQ ID NO: 180). If peptides are uncleaved, they retain the His tag and are stained with by the antibody. A control protease-sensitive knottin peptide (SK) was used as a positive control. Cells displaying peptides were treated with up to 40 μg/ml trypsin or chymotrypsin.
FIG. 21 illustrates high performance liquid chromatograph (HPLC) traces of peptides after trypsin digestion. […] The assay was carried out by reconstituting 1 mg porcine trypsin (Sigma Aldrich 6567) in 1 mL of 1 mM HCl. Trypsin was provided at a concentration of 10,000 u/mL and thus, 5 μl of stock solution was equivalent to using 50 U of trypsin in each reaction. Soybean trypsin inhibitor (SA T9128) was prepared at 1 mg/mL of in H2O. […]

[2] = target: pepsin (Sus scrofa, UniProt P00791); test: Pepsin digestion resistance in simulated gastric fluid, RP-HPLC; assay type: in vitro ADME, porcine; design: purchased Sigma Aldrich P7012; conditions: 500 U/ml pepsin (50 U per reaction) in SGF, 30 minutes at 37.5° C.; HPLC
Protocol: Peptides were first suspended in 500 ul of ddH2O to a stock concentration of 2 mg/ml. Reactions were prepared by adding 12.5 ug of peptide from the stock solution to a 10 mM solution of DTT in PBS and allowed to incubate at room temperature for 30 minutes. Other reactions were prepared with 12.5 μg peptide with or without 500 U/ml pepsin in simulated gastric fluid (SGF; pH 1.05; […] sodium chloride in 0.7% (v/v) hydrochloric acid) and were incubated for 30 minutes at 37.5° C. Some reactions were quenched with a final concentration of 100 mM Tris base and 10 mM dithiothreitol (DTT). Some reactions were performed in all of the above components, including simulated gastric fluid, pepsin, Tris, and DTT (referred to as SPTD). Reversed phase HPLC (RP-HPLC) was run on samples using an Agilent 1260 HPLC equipped with a C-18 Poroshell 120B column. Sample were analyzed by a gradient method with a mobile phase of Solvent A (water with 0.1% TFA) and Solvent B (acetonitrile with 0.1% TFA). Solvent B was ramped up from 5%-45% of the mobile phase over a period of 10 minutes. Peptides were detected at an absorbance of 214 nm and 280 nm.
as §1, §2
FIG. 20 illustrates high performance liquid chromatograph (HPLC) traces of peptides after pepsin digestion. […]

[3] = Resistance to elevated temperature, HPLC; assay type: physicochemical; conditions: HPLC; for resistance to incubation at 70° C. (in words): 70° C. for 1 hour; for resistance to incubation at 100° C. (in words): 100° C. for 1 hour
Protocol: as §1
This example illustrates peptide stability at high temperatures. Peptides were first suspended in 500 μl of ddH2O to a stock concentration of 2 mg/ml. Reactions were prepared by adding 6.25 μl of peptide from the stock solution with 95 μl ddH2O and incubated at room temperature, 70° C., or 100° C. for one hour in a Thermocycler. RP-HPLC was then run on samples using an Agilent 1260 HPLC equipped with a C-18 Poroshell 120B column. Sample were analyzed by a gradient method with a mobile phase of Solvent A (water with 0.1% TFA) and Solvent B (acetonitrile with 0.1% TFA). Solvent B was ramped up from 5%-45% of the mobile phase over a period of 10 minutes.

Sequence of trypsin (P00761 9-231): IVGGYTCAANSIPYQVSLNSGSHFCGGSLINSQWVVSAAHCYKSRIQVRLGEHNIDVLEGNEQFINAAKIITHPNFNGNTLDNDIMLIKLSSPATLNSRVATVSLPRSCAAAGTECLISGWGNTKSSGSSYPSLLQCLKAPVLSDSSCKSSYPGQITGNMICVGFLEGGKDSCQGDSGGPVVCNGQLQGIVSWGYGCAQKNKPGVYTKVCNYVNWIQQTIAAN
Sequence of pepsin (P00791 60-385): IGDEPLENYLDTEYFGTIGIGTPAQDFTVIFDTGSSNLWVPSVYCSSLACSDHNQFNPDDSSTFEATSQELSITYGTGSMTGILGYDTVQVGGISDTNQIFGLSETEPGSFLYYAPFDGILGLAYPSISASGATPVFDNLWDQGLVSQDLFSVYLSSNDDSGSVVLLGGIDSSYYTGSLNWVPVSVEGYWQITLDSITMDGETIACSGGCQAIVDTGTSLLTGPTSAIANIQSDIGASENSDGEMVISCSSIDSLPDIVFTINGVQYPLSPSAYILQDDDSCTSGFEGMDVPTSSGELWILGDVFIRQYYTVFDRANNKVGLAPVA

Molecule	resistance to trypsin digestion (in words) [1]	resistance to pepsin digestion (in words) [2]	resistance to incubation at 70° C. (in words) [3]	resistance to incubation at 100° C. (in words) [3]
CSCC[C@@H]1NC(=O)[C@@H]2CSSC[C@H](NC(=O)[C@H](CCCCN)NC(=O)[C@@H](NC(=O)[C@H](CC(=O)O)NC(=O)[C@@H](NC(=O)[C@H](Cc3ccccc3)NC(=O)[C@H](CCC(N)=O)NC(=O)[C@H](CO)NC(=O)CN)[C@@H](C)O)C(C)C)C(=O)N[C@@H]([C@@H](C)O)C(=O)NCC(=O)N[C@@H](CO)C(=O)N[C@@H](CCCCN)C(=O)N[C@@H](CCC(N)=O)C(=O)N[C@H]3CSSC[C@H](NC(=O)[C@H](CCCCN)NC(=O)CNC(=O)[C@H](CC(N)=O)NC1=O)C(=O)N[C@@H](CCCNC(=N)N)C(=O)N[C@H](C(=O)N[C@@H](Cc1ccc(O)cc1)C(=O)N[C@@H](CO)C(=O)O)CSSC[C@H](NC(=O)[C@H](C(C)C)NC(=O)[C@@H]1CCCN1C(=O)[C@H](Cc1c[nH]c4ccccc14)NC3=O)C(=O)N[C@@H](CCCCN)C(=O)N[C@@H](CCC(N)=O)C(=O)N[C@@H](CCSC)C(=O)N[C@@H](Cc1ccccc1)C(=O)NCC(=O)N[C@@H](CCCCN)C(=O)N1CCC[C@H]1C(=O)N[C@@H](CC(N)=O)C(=O)NCC(=O)N[C@@H](CCCCN)C(=O)N2 [SEQ ID NO: 12] (H-GSQFTDVKCTGSKQCWPVCKQMFGKPNGKCMNGKCRCYS-OH; disulfide 9-30, 15-35, 19-37)	moderately resistant	highly resistant	–	–
CC[C@H](C)[C@@H]1NC(=O)[C@@H](NC(=O)[C@H](CC(=O)O)NC(=O)[C@H](CCCCN)NC(=O)[C@H](CCC(=O)O)NC(=O)[C@H](CO)NC(=O)[C@H](CO)NC(=O)CN)CSSC[C@@H]2NC(=O)[C@@H]3CSSC[C@@H](C(=O)N[C@@H](CCCNC(=N)N)C(=O)O)NC(=O)[C@H](CCCNC(=N)N)NC(=O)[C@H](CCCCN)NC(=O)[C@H](CCC(=O)O)NC(=O)[C@@H]4CCCN4C(=O)[C@H](CC(N)=O)NC(=O)[C@H]([C@@H](C)O)NC(=O)CNC(=O)[C@H](CCCNC(=N)N)NC(=O)[C@H](CCCNC(=N)N)NC(=O)[C@H](CO)NC(=O)[C@H](CSSC[C@H](NC(=O)[C@H](CCCNC(=N)N)NC(=O)[C@H](CCC(N)=O)NC(=O)[C@H](CC(C)C)NC(=O)[C@H](Cc4c[nH]cn4)NC(=O)[C@H](CCCCN)NC1=O)C(=O)N[C@@H](CCCNC(=N)N)C(=O)N[C@@H](CCC(=O)O)C(=O)N[C@@H](CC(N)=O)C(=O)N[C@@H](CCCCN)C(=O)N[C@@H](CC(=O)O)C(=O)N3)NC(=O)[C@H](CCCCN)NC(=O)[C@H](CCCCN)NC(=O)[C@H](CO)NC2=O [SEQ ID NO: 29] (H-GSSEKDCIKHLQRCRENKDCCSKKCSRRGTNPEKRCR-OH; disulfide 7-21, 14-25, 20-36)	–	resistant	–	–
CC[C@H](C)[C@@H]1NC(=O)[C@H](CCCCN)NC(=O)[C@@H](NC(=O)[C@H](CCCCN)NC(=O)[C@@H](NC(=O)[C@H](CC(N)=O)NC(=O)[C@@H](NC(=O)[C@@H](NC(=O)[C@@H](NC(=O)CNC(=O)[C@H](CO)NC(=O)CN)C(C)C)[C@@H](C)CC)[C@@H](C)CC)C(C)C)CSSC[C@@H]2NC(=O)[C@H](CCCCN)NC(=O)CNC(=O)[C@H](Cc3ccccc3)NC(=O)[C@H](CCCNC(=N)N)NC(=O)[C@H](CCSC)NC(=O)CNC(=O)[C@H](C)NC(=O)[C@H](CCCCN)NC(=O)[C@H](CCCCN)NC(=O)[C@@H]3CSSC[C@@H](C(=O)N[C@H](C(=O)N4CCC[C@H]4C(=O)N[C@@H](CCCCN)C(=O)O)[C@@H](C)O)NC(=O)[C@H](Cc4c[nH]cn4)NC(=O)[C@H](CSSC[C@H](NC(=O)[C@H](CCC(N)=O)NC(=O)[C@H](CCCNC(=N)N)NC(=O)[C@H](CO)NC1=O)C(=O)N[C@@H](CC(C)C)C(=O)N[C@@H](CCC(=O)O)C(=O)N1CCC[C@H]1C(=O)N3)NC(=O)[C@H](CCCCN)NC(=O)CNC(=O)[C@H](CC(N)=O)NC(=O)[C@H](CCSC)NC2=O [SEQ ID NO: 57]	highly resistant; also recorded: fully resistant	–	–	–
GSACLAEYQKCEGSTVPCCPGLSCSAGRFRKTKLCTK [SEQ ID NO: 25]	–	–	resistant	various degrees of degradation
GSACQFWSCNSSCISRGYRQGYCWGIQYKYCQCQ [SEQ ID NO: 17]	–	–	–	resistant
GSEVIRCSGSKQCYGPCKQQTGCTNSKCMNKVCKCYGCG [SEQ ID NO: 23]	–	–	resistant	various degrees of degradation
